Measurements taken from the supplement of paper PMC12855868.

B1: library; numbered along this chain (parent)
chain: MAAAGGARLLRAASAVLGGPAGRWLHHAGSRAGSSGLLRNRGPGGSAEASRSLSVSARARSSSEDKITVHFINRDGETLTTKGKVGDSLLDVVVENNLDIDGFGACEGTLACSTCHLIFEDHIYEKLDAITDEENDMLDLAYGLTDRSRLGCQICLTKSMDNMTVRVPETVADARQSIDVGKTS

Variants of: B1
Assay: scaled log2 fold change in cell abundance, elesclomol vs control (0 = silent mean, 1 = nonsense mean) (scaled log2 ratio); higher = higher viability under elesclomol (loss of FDX1 cuproptosis function)
Conditions: glucose 10 mM
Procedure: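 Deep mutational scan of full-length human FDX1: a pooled saturation-mutagenesis ORF library (every residue 2-184 mutated to all 19 amino acids plus stop, and silent codons where available) was expressed by lentivirus in FDX1-knockout ABC1 (14 days) or HEK293T (11 days) cells grown with elesclomol (ES) or DMSO control. Variant abundance came from ORF sequencing. The log2 fold change (ES vs control, mean of duplicates) was centred on the silent-variant mean (0) and scaled to the nonsense-variant mean (1). Higher values mean greater viability under ES, i.e. loss of FDX1 function in cuproptosis.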

[1] = with ABC1 FDX1 KO, elesclomol 5 nM, 14 days
[2] = with HEK293T FDX1 KO, elesclomol 40 nM, 11 days
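Note: variant abundance is its share of total variant reads in each endpoint sample, from next-generation sequencing of the integrated ORF PCR-amplified out of genomic DNA.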

Variant | scaled log2 fold change [1] | scaled log2 fold change [2]
G18H | 0.0847 | -0.242
G18E | -0.165 | -0.152
G18R | 0.241 | -0.618
G18L | -0.655 | 0.123
G18Y | 0.0736 | 0.324
G18M | 0.0948 | 0.156
G18N | 0.408 | 0.649
G18T | 0.225 | 0.0755
G18Q | -0.43 | 0.977
G18C | 0.14 | 0.923
G18W | -0.00826 | -0.224
G18K | 0.322 | 0.179
G18I | 0.0859 | -0.0341
G18D | -0.233 | 0.58
G18P | 0.0386 | 
G18V | 0.494 | -0.0846
G19Q | 0.00839 | -0.000362
G19W | 0.277 | -0.266
G19E | 0.246 | -0.028
G19I | 0.0203 | -0.0307
G19P | 0.54 | 
G19S | 0.267 | 0.0205
G19H | 0.674 | 
G19Y | 0.187 | -0.867

Variant | scaled log2 fold change [1] | scaled log2 fold change [2]
G19A | -0.167 | -0.0193
G19K | -0.0528 | -0.256
G19F | 0.0719 | 0.185
G19M | -0.0059 | -0.191
G19C | -0.0683 | -0.489
G19D | 0.233 | 0.874
G19N | -0.0111 | 0.0883
G19R | 0.483 | 1.5
G19V | -0.0119 | 1.01
G19L | -0.367 | 0.0638
G19T | 0.117 | 0.837
A13Y | -0.585 | 0.259
A13H | 0.0738 | -1.05
A13G | 0.519 | 
A13P | 0.188 | 
A13F | 0.0208 | 1.34
A13R | -0.131 | 0.251
A13T | 0.0105 | -0.0204
A13M | -0.148 | 0.232
A13K | 0.137 | -0.0857
A13E | 0.269 | 0.026
A13S | 0.157 | 0.0322
A13D | 0.543 | -0.132
A13Q | 0.0333 | 0.653

Variant | scaled log2 fold change [1] | scaled log2 fold change [2]
A13I | -0.0121 | 0.147
A13W | 0.54 | -0.436
A13N | 0.0507 | -0.531
A13V | 0.347 | 
A13L | 0.256 | 0.56
A13C | 0.224 | 0.158
L10Y | 0.409 | 0.302
L10T | 0.0611 | 
L10V | 0.189 | -0.208
L10K | -0.11 | -0.14
L10W | -0.304 | 0.734
L10M | 0.337 | 0.282
L10S | 0.48 | 1.51
L10P | -0.379 | 
L10N | 0.128 | -0.352
L10Q | 0.168 | 0.352
L10R | 0.663 | 
A21L | 0.235 | 0.118
A21K | -0.827 | 
A21G | 0.106 | -0.283
A21R | -0.644 | -0.0217
A21S | 0.463 | -0.189
A21Y | -0.187 | 
A21Q | -0.931 | 0.318

Variant | scaled log2 fold change [1] | scaled log2 fold change [2]
A21D | 0.168 | -0.0523
A21H | -0.455 | -0.00969
A21I | 0.0825 | 0.0632
A21P | 0.0803 | 
A21C | -0.145 | -0.0664
A21V | 0.197 | 
A21E | -0.0483 | -0.444
A21M | -0.216 | -0.139
A21T | -0.223 | -0.058
A21F | -0.268 | 0.113
A21N | -0.1 | -0.618
L17Y | -0.147 | 0.613
L17R | -0.051 | 0.603
L17I | -0.552 | -0.833
L17Q | -0.0277 | -0.517
L17S | 0.386 | 0.458
L17F | -0.361 | 0.252
L17T | 0.262 | -0.223
L17K | -0.392 | -0.386
L17N | 0.306 | 
L17E | 0.227 | 
L17V | -0.232 | 
L17G | 0.217 | -0.178
L17H | -0.27 | -0.167

Variant | scaled log2 fold change [1] | scaled log2 fold change [2]
L17C | 0.0553 | 0.966
L17P | -0.107 | 
L17A | -0.194 | 
L17D | 0.342 | 0.653
L17W | 0.321 | -0.126
L17M | 0.05 | 0.0514
A15C | 0.107 | 0.017
A15T | 0.322 | -0.179
A15K | -0.22 | -0.495
A15L | -0.153 | -0.301
A15D | 0.405 | 0.431
A15I | -0.367 | -0.0209
A15G | -0.419 | 0.437
A15S | 0.137 | 0.0336
A15Q | 0.208 | 0.886
A15F | -0.0557 | -0.87
A15N | -0.0399 | -0.856
A15Y | -0.822 | 
A15W | 0.0842 | -0.229
A15E | 0.311 | -0.231
A15M | -0.0208 | 0.445
A15H | 0.0941 | -0.215
A15P | 0.172 | 0.337
A15V | 0.02 | 
